Measured values from the supplement of paper PMC9170038.

Tested on: MS2 coat protein
Experiment: apparent KD of MS2 coat protein; designed switch direction (-1 OFF switch, 1 ON switch): -1; higher = weaker reporter binding
Procedure, shortened: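 Apparent KD, taken as the median over clusters for each design, was obtained by curve-fitting normalised cluster fluorescence. Designed RNA switches had been transcribed on Illumina chips by stalled E. coli RNA polymerase and titrated with SNAP-549-labelled MS2 coat protein, doubling from 0.7 or 1.5 nM to 3 µM.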

[1] = Eterna round: R95, input ligand: microRNA oligo, concentration not stated
[2] = input ligand: microRNA oligo, concentration not stated

Sequence	apparent KD of MS2 coat protein (input ligand: FMN 200 uM) [nM]	apparent KD of MS2 coat protein (input ligand: none) [nM]	further results
AGUUCACAUGAGGAUCACCCAUGUGAGGAUAUGGUUUCGCUGGCCGUAGCCAGUGGAACCAGAAGGCGCGUGAU [Mat - Exclusion 1 - JL Mod - D15] (Eterna round: R97, puzzle: Exclusion 1)	52.1	51	
UAAUGCAAGUAAAGAUCCUACAUGAGGAUCACCCAUGUGCUCGUCUUAUAAAGUACUAUCACGAAAGUGAUAGUACA [Mat - Sensor v3 - turn-off var 1 - Eli Mod - D83] (puzzle: Sensor v3, turn-off variant 1)			apparent KD of MS2 coat protein (Eterna round: R95, input ligand: FMN 200 uM): 385 nM; apparent KD of MS2 coat protein [1]: 31.8 nM; apparent KD of MS2 coat protein (Eterna round: R95, input ligand: none): 167 nM
AUAUCCCGAGGAUAUACAUGAGGAUCACCCAUGUCGGGCCUCUGGCCUAAGGCCGAAAGUAGAAGGUGGGUUUC [JL Riri mod 11] (puzzle: Exclusion 3)			apparent KD of MS2 coat protein [1]: 126 nM
GGAGAGAAACAGGAUAUGGGAGGGAGGACCGGACCAGAAGGGUUGACAUGAGGAUCACCCAUGUAGAGAUCCUC [AK-MS2ROC-r4-exclusion6-6.7] (Eterna round: R97, puzzle: Exclusion 6)	486	1700	
UUUAAGUCAGGAUAUACAUGAGGAUCACCCAUGUAAAAUUUUAAUUUAAUUUGAAGGUGUAGAAGGGACAAAUU [Ex3 #37] (Eterna round: R97, puzzle: Exclusion 3)	23	24.6	
GUGCCGCGAGGAUAUACAGACGGGUCCAGUGCGUGUCUCGGACUUGAGGAUCACCCAAGUAGAAGGCGUCUCAG [salish99_ex2_r4_614] (Eterna round: R97, puzzle: Exclusion 2)	16.7	31	
GUGCCGCGAGGAUAUACAGACGGGUCCAGUACGUGUCUUGGACUUGAGGAUCACCCAAGUAGAAGGCGUCUCAG [salish99_ex2_r4_612] (Eterna round: R97, puzzle: Exclusion 2)	37.6	48.9	
CCGGGCCCGGGAGGAUAUACAUGAGGAUCACCCAUGUGGGCCCGGGCCCGCGGGCCCGGGCCCAUGUAGAAGGCCCGGGCCCGG [-64.8, -64.2 kcal, A 15%] (Eterna round: R96, puzzle: Exclusion NG 2)	50	20.4	apparent KD of MS2 coat protein [2]: 36.4 nM
AUAUUACAUGAGGAUCACCCAUGUGAGGAUAUGGAGCGAGACUGUCCUGUCGCGUACACCAGAAGGCGCGGGCG [1st #53] (Eterna round: R97, puzzle: Exclusion 1)	27.5	31	
CUGCUCCGUGUAGGAUAUGCAUAUUCCCAUUAUGCAGAAGGACAUGAGGAUCACCCAUGUAUGUUAUUAUCAUGUGUUGCAUGC [Design 10] (Eterna round: R96, puzzle: Exclusion NG 1)	146	34.3	apparent KD of MS2 coat protein [2]: 35.2 nM
CUGCUGGAGCUUUGCUUUGGUCGUACAUGAGGAUCACCCAUGUAGGAUAUGGUAGGAUUUGCUUGCUAGAAGGAUAGAGUGGUC [salish99_ExNG3_r04_610] (Eterna round: R96, puzzle: Exclusion NG 3)	92.7	54.5	apparent KD of MS2 coat protein [2]: 36.1 nM
AUUAUAUAGAUAGGAUAUAGAAUAUUAUUUUAACAUGAGGAUCACCCAUGUAACCUUAUGUGUAGCUAGAAGGAUCAUUUAUUA [Title] (Eterna round: R96, puzzle: Exclusion NG 2)			apparent KD of MS2 coat protein [2]: 69.5 nM
GUUAAGGUAGGAUAUACGAUAAUAUAGGGUAGAUAUAUAACACAUGAGGAUCACCCAUGUAGAAGGACCAAUUG [Mat - Exclusion 2 - Mod of my Tesla design - D53] (puzzle: Exclusion 2)			apparent KD of MS2 coat protein [1]: 28.5 nM
CUCGCUGUAGGAUAUACAUAUGUCCUGUCAGCCGCGGCAGAACAUGAGGAUCACCCAUGUAGAAGGAUAGAGAG [Eternabot (Original) Solution 34] (Eterna round: R97, puzzle: Exclusion 2)	48.3	26.7	
